Measured values published in PMC6817665 (iScience, 2019).
Where “and” joins values, the source holds several entries; their conditions need not be identical. Equal values may be shown once.

Experiments:
[1] = molecular target: M1 (linear) GST-Ub2 (UniProt P0CG48); assay: BLI
[2] = molecular target: the molecule itself; assay: SEC-MALS

ESLVECPKCNIQYPATEHRDLLVHVEYCSK [Strep-tag II CEP55 ZF (StrepII-tag version of CEP55 ZF peptide, residues 435–464)] was tested, and the Kd [1] was 1600 nM.

With ESLVECPKCNIQYPATEHRDLLVHVAYCSK [StrepII-tag version of CEP55 ZF mutant E460A] the “fold reduction of binding affinity against WT” value [1] was 26 fold.

B1: CEP55 His-NOA (His-tag version of the human CEP55 NOA fragment, residues 304–396) (domain or fragment)
chain: IQKLREENDIARGKLEEEKKRSEELLSQVQFLYTSLLKQQEEQTRVALLEQQMQACTLDFENEKLDRQHVQHQLHVILKELRKARNQITQLES
B1 was tested, and the “fold weaker dimerization affinity than NEMO NOA” value [2] was 6 fold and the “stoichiometry N” value [2] was 2 and 6.
